From PMC9412862

What was measured:
[1] = target: NS4b full-length (residues 1-249), C-terminal six-histidine tag (dengue virus serotype 1); experiment: BLI
[2] = target: NS4b full-length (residues 1-249), C-terminal six-histidine tag (dengue virus serotype 1); experiment: SEC

Substance: helicase domain of DENV NS3 (NS3Hel), residues 178-619, C-terminal 6-histidine tag (domain or fragment)
- Kd [1]: 508 nM

Substance: NS4b full-length (residues 1-249), C-terminal six-histidine tag (natural protein)
- stoichiometry N [2]: 2
